Series [1] concerns the target SAFB2 SAP domain (21-70), wild type (human) (UniProt Q14151). Briefly: SEC; preparative size exclusion on HiLoad 16/600 SD 75 in 25 mM sodium phosphate, 150 mM NaCl, 0.02% NaN3, pH 6.5; size from calibration.
In series [2] the target is T1, SAFB2 RRM (404-485) (Homo sapiens, UniProt Q14151 404-485). Briefly: NMR titration; CSPs equal to A7/C7; NMR: 20 mM BisTris, 150 mM NaCl, pH 6.5, 5% D2O, 298 K (RRM plus 2 mM TCEP). EMSA: 25 mM sodium phosphate, 150 mM NaCl, 0.02% NaN3, pH 6.5, 10 mM MgCl2, 0.6 ug. As to conditions: protein: recombinant; tags: N-terminal GAM left after TEV cleavage (His6-Trx removed); blunt.
T1 sequence (Q14151 404-485): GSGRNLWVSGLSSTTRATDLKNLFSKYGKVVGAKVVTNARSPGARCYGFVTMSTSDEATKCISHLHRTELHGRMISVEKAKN

Series [3] has as its target T2, SAFB2 SAP WT (21-70) (Homo sapiens, UniProt Q14151 21-70).
T2 chain: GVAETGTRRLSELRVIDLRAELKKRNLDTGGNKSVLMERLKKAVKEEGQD
Put plainly: NMR titration; up to 6x DNA; fast exchange; NMR: 20 mM BisTris, 150 mM NaCl, pH 6.5, 5% D2O, 298 K (RRM plus 2 mM TCEP). EMSA: 25 mM sodium phosphate, 150 mM NaCl, 0.02% NaN3, pH 6.5, 10 mM MgCl2, 0.6 ug. As to conditions: protein: recombinant; tags: N-terminal GAM left after TEV cleavage (His6-Trx removed); blunt.

Series [4] addresses T2, SAFB2 SAP WT (21-70). Briefly: EMSA; 0-40 uM SAP; yeast tRNA, 10 mM MgCl2; slight preference for AT over GC; apparent micromolar affinity; NMR: 20 mM BisTris, 150 mM NaCl, pH 6.5, 5% D2O, 298 K (RRM plus 2 mM TCEP). EMSA: 25 mM sodium phosphate, 150 mM NaCl, 0.02% NaN3, pH 6.5, 10 mM MgCl2, 0.6 ug. As to conditions: protein: recombinant; tags: N-terminal GAM left after TEV cleavage (His6-Trx removed); label: 5'-6-FAM on fw strand; blunt.

Series [5] has as its target T2, SAFB2 SAP WT (21-70). Briefly: NMR titration; CSP as for 16mer; NMR: 20 mM BisTris, 150 mM NaCl, pH 6.5, 5% D2O, 298 K (RRM plus 2 mM TCEP). EMSA: 25 mM sodium phosphate, 150 mM NaCl, 0.02% NaN3, pH 6.5, 10 mM MgCl2, 0.6 ug. As to conditions: protein: recombinant; tags: N-terminal GAM left after TEV cleavage (His6-Trx removed); blunt.
A further series deals with T3, SAFB2 SAP K53A/S54A (Homo sapiens, UniProt Q14151 21-70, K53A;S54A).
T3 chain: T2 chain with K33A, S34A
Put plainly: NMR titration; 6x DNA; no significant CSPs; NMR: 20 mM BisTris, 150 mM NaCl, pH 6.5, 5% D2O, 298 K (RRM plus 2 mM TCEP). EMSA: 25 mM sodium phosphate, 150 mM NaCl, 0.02% NaN3, pH 6.5, 10 mM MgCl2, 0.6 ug. As to conditions: protein: recombinant; tags: N-terminal GAM left after TEV cleavage; blunt.

Series [6] concerns the target T1, SAFB2 RRM (404-485). Briefly: NMR titration; significant CSPs of RNP residues; NMR: 20 mM BisTris, 150 mM NaCl, pH 6.5, 5% D2O, 298 K (RRM plus 2 mM TCEP). EMSA: 25 mM sodium phosphate, 150 mM NaCl, 0.02% NaN3, pH 6.5, 10 mM MgCl2, 0.6 ug. To be noted: protein: recombinant; tags: N-terminal GAM left after TEV cleavage (His6-Trx removed).

Where a chain is given by its changes, count along the chain named.

In series [1], “SAFB2 SAP domain (21-70), wild type (from UniProt Q14151 21-70) (domain or fragment)” gave a stoichiometry N of 2.

B1: dsAT16mer (dsDNA)
DNA 1: GCGCACAATATAACGC
DNA 2: GCGTTATATTGTGCGC
For B1, the binding result with SAFB2 RRM (404-485) [2] and in the series with SAFB2 SAP WT (21-70) [3] was “binds” each time.

B2: dsAT13mer (dsDNA)
DNA 1: GCAATAAATACG
DNA 2: CGTATTTATTGC
Consider B2, for which the binding result with SAFB2 SAP WT (21-70) [4] is given as “binds”.

B3: dsAT9mer (dsDNA)
DNA 1: CAATATAAC
DNA 2: GTTATATTG
Take B3: the binding result is “binds” in the series with SAFB2 SAP WT (21-70) [5] and “no binding” with SAFB2 SAP K53A/S54A.

B4: dsGC16mer (dsDNA)
DNA 1: CGCCCCCGCGCCCGCG
DNA 2: CGCGGGCGCGGGGGCG
As to B4, the binding result with SAFB2 RRM (404-485) [2] was “binds”.

B5: A7 (ssRNA)
RNA: AAAAAAA
Consider B5, for which, in the series with SAFB2 RRM (404-485) [6], the binding result is on record as “binds”.

B6: C7 (ssRNA)
RNA: CCCCCCC
On to B6, for which the binding result in the series with SAFB2 RRM (404-485) [6] is given as “binds”.

Values taken from PMC9958909, “Insight into the Structural Basis for Dual Nucleic Acid—Recognition by the Scaffold Attachment Factor B2 Protein”.
